Laboratory results: publication PMC11007441, “Deciphering the role of Enterococcus faecium cytidine deaminase in gemcitabine resistance of gallbladder cancer” (The Journal of Biological Chemistry, 2024)

B1: cytidine deaminase of Enterococcus faecium (EfCDA) (enzyme, UniProt Q3XXR8 1-132, looked up)
chain: MAELKQEWINTAIEALDKAYVPYSHFPVGACLVTESGKIYQGINIENASFGLTNCAERTAFFKAVSEGEKTFTHLVVAGHTPDPISPCGACRQVMAEFCSPDMPVTLVGDNGVTKATTVRALLPYAFTEKDL
notes: cytidine deaminase of Enterococcus faecium, full-length protein with a single CDA catalytic domain, 132 amino acids; UniProt A0A133N269, WP_002291109.1; Homotetramer in the crystal: molecules A and B in the asymmetric unit, the tetramer completed by a symmetry operation; One zinc ion per chain (C55, C88, C91); also called EfCDD; T-CDA; source: E. coli BL21 (DE3), purified (HisTrap HP, HiTrap Q, …)

Tests used:
[1] = system: Nc1ccn([C@@H]2O[C@H](CO)[C@@H](O)C2(F)F)c(=O)n1; experiment: purified protein; details: 0.2 uM enzyme; gemcitabine 0.5-8 mM; initial rates 0-1 min
[2] = molecular target: the molecule itself; experiment: crystal structure; vapor diffusion, EfCDA at 15 mg/ml; apo-I (0.1 M Tris pH 8.5, 2.2 M (NH4)2SO4), apo-II (0.1 M sodium cacodylate pH 6.5, 20% PEG 4000) and complex with dFdU (co-crystallised with gemcitabine 1:10); tetramer from two molecules of the asymmetric unit by crystal symmetry

Row | Molecule | Km [1] [mM] | stoichiometry N [2]
1 | EfCDA (cytidine deaminase of Enterococcus faecium) (Enterococcus lactis) | 8.44 | –
2 | B1 | – | 4
